B1: Tuftelin-interacting protein 11 (Homo sapiens), Q9UBB9 (parent)
chain: MSLSHLYRDGEGRIDDDDDERENFEITDWDLQNEFNPNRQRHWQTKEEATYGVWAERDSDDERPSFGGKRARDYSAPVNFISAGLKKGAAEEAELEDSDDEEKPVKQDDFPKDFGPRKLKTGGNFKPSQKGFAGGTKSFMDFGSWERHTKGIGQKLLQKMGYVPGRGLGKNAQGIINPIEAKQRKGKGAVGAYGSERTTQSMQDFPVVDSEEEAEEEFQKELSQWRKDPSGSKKKPKYSYKTVEELKAKGRISKKLTAPQKELSQVKVIDMTGREQKVYYSYSQISHKHNVPDDGLPLQSQQLPQSGKEAKAPGFALPELEHNLQLLIDLTEQEIIQNDRQLQYERDMVVNLFHELEKMTEVLDHEERVISNLSKVLEMVEECERRMQPDCSNPLTLDECARIFETLQDKYYEEYRMSDRVDLAVAIVYPLMKEYFKEWDPLKDCTYGTEIISKWKSLLENDQLLSHGGQDLSADAFHRLIWEVWMPFVRNIVTQWQPRNCDPMVDFLDSWVHIIPVWILDNILDQLIFPKLQKEVENWNPLTDTVPIHSWIHPWLPLMQARLEPLYSPIRSKLSSALQKWHPSDSSAKLILQPWKDVFTPGSWEAFMVKNIVPKLGMCLGELVINPHQQHMDAFYWVIDWEGMISVSSLVGLLEKHFFPKWLQVLCSWLSNSPNYEEITKWYLGWKSMFSDQVLAHPSVKDKFNEALDIMNRAVSSNVGAYMQPGARENIAYLTHTERRKDFQYEAMQERREAENMAQRGIGVAASSVPMNFKDLIETKAEEHNIVFMPVIGKRHEGKQLYTFGRIVIYIDRGVVFVQGEKTWVPTSLQSLIDMAK
partner: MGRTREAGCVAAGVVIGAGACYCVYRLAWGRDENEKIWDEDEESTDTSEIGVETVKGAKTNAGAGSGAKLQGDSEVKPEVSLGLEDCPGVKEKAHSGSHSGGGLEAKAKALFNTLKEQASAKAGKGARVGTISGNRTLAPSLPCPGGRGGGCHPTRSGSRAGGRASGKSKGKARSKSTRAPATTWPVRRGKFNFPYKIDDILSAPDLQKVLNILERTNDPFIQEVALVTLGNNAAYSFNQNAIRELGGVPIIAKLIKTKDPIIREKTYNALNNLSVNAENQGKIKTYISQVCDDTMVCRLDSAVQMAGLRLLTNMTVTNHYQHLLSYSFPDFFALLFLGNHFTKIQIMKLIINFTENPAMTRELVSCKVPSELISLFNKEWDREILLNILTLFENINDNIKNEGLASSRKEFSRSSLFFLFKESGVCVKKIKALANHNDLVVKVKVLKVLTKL
B2: DCC-interacting protein 13-beta (Homo sapiens), Q8NEU8 (parent)
chain: MPAVDKLLLEEALQDSPQTRSLLSVFEEDAGTLTDYTNQLLQAMQRVYGAQNEMCLATQQLSKQLLAYEKQNFALGKGDEEVISTLHYFSKVVDELNLLHTELAKQLADTMVLPIIQFREKDLTEVSTLKDLFGLASNEHDLSMAKYSRLPKKKENEKVKTEVGKEVAAARRKQHLSSLQYYCALNALQYRKQMAMMEPMIGFAHGQINFFKKGAEMFSKRMDSFLSSVADMVQSIQVELEAEAEKMRVSQQELLSVDESVYTPDSDVAAPQINRNLIQKAGYLNLRNKTGLVTTTWERLYFFTQGGNLMCQPRGAVAGGLIQDLDNCSVMAVDCEDRRYCFQITTPNGKSGIILQAESRKENEEWICAINNISRQIYLTDNPEAVAIKLNQTALQAVTPITSFGKKQESSCPSQNLKNSEMENENDKIVPKATASLPEAEELIAPGTPIQFDIVLPATEFLDQNRGSRRTNPFGETEDESFPEAEDSLLQQMFIVRFLGSMAVKTDSTTEVIYEAMRQVLAARAIHNIFRMTESHLMVTSQSLRLIDPQTQVSRANFELTSVTQFAAHQENKRLVGFVIRVPESTGEESLSTYIFESNSEGEKICYAINLGKEIIEVQKDPEALAQLMLSIPLTNDGKYVLLNDQPDDDDGNPNEHRGAESEA
partner: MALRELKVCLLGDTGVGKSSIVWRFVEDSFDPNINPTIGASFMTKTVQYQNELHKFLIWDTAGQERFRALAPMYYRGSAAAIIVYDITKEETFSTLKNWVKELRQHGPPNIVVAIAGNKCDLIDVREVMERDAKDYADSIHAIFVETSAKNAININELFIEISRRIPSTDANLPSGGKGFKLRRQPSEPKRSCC
B3: Vacuolar protein sorting-associated protein 37B (Homo sapiens), Q9H9H4 (parent)
chain: MAGAGSEARFAGLSLVQLNELLEDEGQLTEMVQKMEETQNVQLNKEMTLASNRSLAEGNLLYQPQLDTLKARLTQKYQELQVLFEAYQIKKTKLDRQSSSASLETLLALLQAEGAKIEEDTENMAEKFLDGELPLDSFIDVYQSKRKLAHMRRVKIEKLQEMVLKGQRLPQALAPLPPRLPELAPTAPLPYPAPEASGPPAVAPRRIPPPPPPVPAGRLATPFTAAMSSGQAVPYPGLQCPPLPPRVGLPTQQGFSSQFVSPYPPPLPQRPPPRLPPHQPGFILQ
B4: "N-acyl-aromatic-L-amino acid amidohydrolase (carboxylate-forming)" (Homo sapiens), Q96HD9 (parent)
chain: MCSLPVPREPLRRVAVTGGTHGNEMSGVYLARHWLHAPAELQRASFSAVPVLANPAATSGCRRYVDHDLNRTFTSSFLNSRPTPDDPYEVTRARELNQLLGPKASGQAFDFVLDLHNTTANMGTCLIAKSSHEVFAMHLCRHLQLQYPELSCQVFLYQRSGEESYNLDSVAKNGLGLELGPQPQGVLRADIFSRMRTLVATVLDFIELFNQGTAFPAFEMEAYRPVGVVDFPRTEAGHLAGTVHPQLQDRDFQPLQPGAPIFQMFSGEDLLYEGESTVYPVFINEAAYYEKGVAFVQTEKFTFTVPAMPALTPAPSPAS
partner: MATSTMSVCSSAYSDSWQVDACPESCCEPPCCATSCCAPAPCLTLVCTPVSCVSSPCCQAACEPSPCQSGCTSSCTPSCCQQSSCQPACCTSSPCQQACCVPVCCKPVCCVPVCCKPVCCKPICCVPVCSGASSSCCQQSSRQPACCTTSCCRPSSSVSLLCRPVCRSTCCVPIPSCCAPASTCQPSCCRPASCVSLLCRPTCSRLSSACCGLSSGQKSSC
B5: Four and a half LIM domains protein 2 (Homo sapiens), Q14192 (parent)
chain: MTERFDCHHCNESLFGKKYILREESPYCVVCFETLFANTCEECGKPIGCDCKDLSYKDRHWHEACFHCSQCRNSLVDKPFAAKEDQLLCTDCYSNEYSSKCQECKKTIMPGTRKMEYKGSSWHETCFICHRCQQPIGTKSFIPKDNQNFCVPCYEKQHAMQCVQCKKPITTGGVTYREQPWHKECFVCTACRKQLSGQRFTARDDFAYCLNCFCDLYAKKCAGCTNPISGLGGTKYISFEERQWHNDCFNCKKCSLSLVGRGFLTERDDILCPDCGKDI
partner: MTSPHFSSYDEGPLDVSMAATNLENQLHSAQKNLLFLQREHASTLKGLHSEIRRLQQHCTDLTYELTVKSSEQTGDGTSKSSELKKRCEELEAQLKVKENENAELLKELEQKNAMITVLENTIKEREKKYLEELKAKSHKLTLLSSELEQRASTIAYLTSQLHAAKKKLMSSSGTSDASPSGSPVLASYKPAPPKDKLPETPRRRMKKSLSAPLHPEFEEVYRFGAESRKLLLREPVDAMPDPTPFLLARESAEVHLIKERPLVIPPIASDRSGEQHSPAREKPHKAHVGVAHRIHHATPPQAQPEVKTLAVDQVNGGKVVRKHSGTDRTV
B6: Zinc finger and BTB domain-containing protein 9 (Homo sapiens), Q96C00 (parent)
chain: METPTPLPPVPASPTCNPAPRTIQIEFPQHSSSLLESLNRHRLEGKFCDVSLLVQGRELRAHKAVLAAASPYFHDKLLLGDAPRLTLPSVIEADAFEGLLQLIYSGRLRLPLDALPAHLLVASGLQMWQVVDQCSEILRELETSGGGISARGGNSYHALLSTTSSTGGWCIRSSPFQTPVQSSASTESPASTESPVGGEGSELGEVLQIQVEEEEEEEEDDDDEDQGSATLSQTPQPQRVSGVFPRPHGPHPLPMTATPRKLPEGESAPLELPAPPALPPKIFYIKQEPFEPKEEISGSGTQPGGAKEETKVFSGGDTEGNGELGFLLPSGPGPTSGGGGPSWKPVDLHGNEILSGGGGPGGAGQAVHGPVKLGGTPPADGKRFGCLCGKRFAVKPKRDRHIMLTFSLRPFGCGICNKRFKLKHHLTEHMKTHAGALHACPHCGRRFRVHACFLRHRDLCKGQGWATAHWTYK
B7: Peroxisomal bifunctional enzyme (Homo sapiens), Q08426 (parent)
chain: MAEYTRLHNALALIRLRNPPVNAISTTLLRDIKEGLQKAVIDHTIKAIVICGAEGKFSAGADIRGFSAPRTFGLTLGHVVDEIQRNEKPVVAAIQGMAFGGGLELALGCHYRIAHAEAQVGLPEVTLGLLPGARGTQLLPRLTGVPAALDLITSGRRILADEALKLGILDKVVNSDPVEEAIRFAQRVSDQPLESRRLCNKPIQSLPNMDSIFSEALLKMRRQHPGCLAQEACVRAVQAAVQYPYEVGIKKEEELFLYLLQSGQARALQYAFFAERKANKWSTPSGASWKTASARPVSSVGVVGLGTMGRGIVISFARARIPVIAVDSDKNQLATANKMITSVLEKEASKMQQSGHPWSGPKPRLTSSVKELGGVDLVIEAVFEEMSLKKQVFAELSAVCKPEAFLCTNTSALDVDEIASSTDRPHLVIGTHFFSPAHVMKLLEVIPSQYSSPTTIATVMNLSKKIKKIGVVVGNCFGFVGNRMLNPYYNQAYFLLEEGSKPEEVDQVLEEFGFKMGPFRVSDLAGLDVGWKSRKGQGLTGPTLLPGTPARKRGNRRYCPIPDVLCELGRFGQKTGKGWYQYDKPLGRIHKPDPWLSKFLSRYRKTHHIEPRTISQDEILERCLYSLINEAFRILGEGIAASPEHIDVVYLHGYGWPRHKGGPMFYASTVGLPTVLEKLQKYYRQNPDIPQLEPSDYLKKLASQGNPPLKEWQSLAGSPSSKL
partner: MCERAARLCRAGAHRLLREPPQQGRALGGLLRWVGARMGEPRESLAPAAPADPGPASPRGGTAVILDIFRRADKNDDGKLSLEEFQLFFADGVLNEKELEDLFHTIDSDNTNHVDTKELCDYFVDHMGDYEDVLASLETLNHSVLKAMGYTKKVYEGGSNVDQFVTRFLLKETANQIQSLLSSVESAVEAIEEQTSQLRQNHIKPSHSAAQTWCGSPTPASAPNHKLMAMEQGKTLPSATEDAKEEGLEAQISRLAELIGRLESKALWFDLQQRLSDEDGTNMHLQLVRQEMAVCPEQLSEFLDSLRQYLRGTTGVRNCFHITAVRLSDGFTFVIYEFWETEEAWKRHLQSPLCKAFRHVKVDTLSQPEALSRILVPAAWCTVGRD

Variants of: B1
Settings: with armx1_human ARMCX1, Q9P291
With R8Q the “effect of a mutation on the interaction” value was “with no effect”. For S688L, the “effect of a mutation on the interaction” value was “with no effect”.

Variants of: B2
Settings: with rb22a_human RAB22A
For K70R, the “effect of a mutation on the interaction” value was “with no effect”.

Variants of: B3
Settings: with vps28_human VPS28, Q9UK41
M151I was tested, and the “effect of a mutation on the interaction” value was “with no effect”.

Variants of: B4
Settings: with kr103_human KRTAP10-3, P60369
For R8Q, the “effect of a mutation on the interaction” value was “with no effect”.

Variants of: B5
Settings: with ccd92_human CCDC92, Q53HC0
With A37S the “effect of a mutation on the interaction” value was “with no effect”. For N95K, the “effect of a mutation on the interaction” value was “with no effect”.

Variants of: B6
Settings: with pin4_human PIN4, Q9Y237
For S173C, the “effect of a mutation on the interaction” value was “with no effect”.

Variants of: B6
Settings: with if4e2_human EIF4E2, O60573
With S173C the “effect of a mutation on the interaction” value was “with no effect”.

Variants of: B6
Settings: with mo4l1_human MORF4L1, Q9UBU8
S173C was tested, and the “effect of a mutation on the interaction” value was “with no effect”.

Variants of: B7
Settings: with neca2_human NECAB2, Q7Z6G3
S703F was tested, and the “effect of a mutation on the interaction” value was “with no effect”. For R483Q, the “effect of a mutation on the interaction” value was “disrupting interaction strength”.

Source: IntAct's records for PubMed 31515488
